How the values were obtained:
[1] = target: Ag2 (EPEA), displayed on E. coli (synthetic EPEA peptide tag (sequence …)); assay: flow cytometry on cells
[2] = target: intimin (EHEC adhesin), overexpressed on the E. coli surface (Escherichia coli O157:H7 (EHEC), …, UniProt P43261); assay: flow cytometry on cells
Chain of intimin (EHEC adhesin), overexpressed on the E. coli surface (P43261 40-934): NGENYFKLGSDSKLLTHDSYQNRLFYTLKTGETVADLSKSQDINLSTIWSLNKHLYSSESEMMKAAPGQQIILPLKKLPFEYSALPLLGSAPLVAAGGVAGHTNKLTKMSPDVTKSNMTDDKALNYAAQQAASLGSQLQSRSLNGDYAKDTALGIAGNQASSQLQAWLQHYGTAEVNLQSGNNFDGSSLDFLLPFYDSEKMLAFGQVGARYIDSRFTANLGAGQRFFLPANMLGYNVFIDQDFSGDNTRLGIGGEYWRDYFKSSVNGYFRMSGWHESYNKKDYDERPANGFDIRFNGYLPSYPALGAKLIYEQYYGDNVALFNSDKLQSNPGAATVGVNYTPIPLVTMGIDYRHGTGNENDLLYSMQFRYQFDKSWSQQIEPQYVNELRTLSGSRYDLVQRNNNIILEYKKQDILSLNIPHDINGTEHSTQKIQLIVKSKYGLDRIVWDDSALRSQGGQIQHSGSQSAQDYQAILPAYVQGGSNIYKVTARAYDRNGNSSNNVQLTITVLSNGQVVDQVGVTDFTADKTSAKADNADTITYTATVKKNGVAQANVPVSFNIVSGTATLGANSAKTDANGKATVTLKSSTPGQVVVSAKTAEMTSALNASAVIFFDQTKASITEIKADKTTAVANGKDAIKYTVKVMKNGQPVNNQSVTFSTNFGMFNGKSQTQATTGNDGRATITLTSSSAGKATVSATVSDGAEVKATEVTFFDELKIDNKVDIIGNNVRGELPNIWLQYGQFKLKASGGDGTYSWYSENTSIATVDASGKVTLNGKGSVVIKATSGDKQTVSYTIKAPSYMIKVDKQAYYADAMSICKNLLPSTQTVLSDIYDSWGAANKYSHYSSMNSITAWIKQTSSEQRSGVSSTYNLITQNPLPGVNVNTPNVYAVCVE

B1: Nb3 (anti-P53TA) nanobody, yeast-displayed (VHH)
VHH: QVQLQESGGGSVRPGESLRLSCIAAGTLFSGKAVGWYRQAPGKDRELVAALSSGRETYYIGPVKGRFIISRDDNKDTLYLQMNNLKLEDTAIYTCRLGLHWGQGTQVTVSS
binding result [1]: no binding

B2: IB10 nanobody against intimin, yeast-displayed (VHH)
VHH: QVQLVESGGGSVQAGGSLRLSCKASGFTFPYSDMGWYRQTPGNECELVSTTGPESDPSFWYADSVKGRFTISRDNTKNTVYLQMNDLKPEDTGMYVCASELGAGSGRCYGYHYWGQGTQVTVSS
binding result [2]: binds

From paper doi:10.1101/2021.10.13.464218 (bioRxiv, 2021)
